{"source": "patent US20060051755A1", "target": "UbAMC (Homo sapiens (Human)) (UniProt P0CG48)"}
{"substance": "GST-Bap-1 (enzyme)", "values": [{"measurement": "Km, fluorogenic ubiquitin cleavage assay", "result": 0.5, "unit": "µM"}]}
